Starred links: 1 amine or outer side, 2 acyl side, 3 side chain; linkers in the order of their positions; H or OH if unused. Non-standard residues stand in square brackets, D forms with d. Groups on a side chain read outwards from the residue. No end group written: not given here. *: point of attachment. C20 diacid = O=C(O)CCCCCCCCCCCCCCCCCCC(=O)*; αMePhe(2-F) = C[C@](N)(Cc1ccccc1F)C(=O)O; γGlu = O=C(O)[C@H](CCC(=O)[*:2])N[*:1]; 4Pal = N[C@@H](Cc1ccncc1)C(=O)O; αMeL = CC(C)C[C@](C)(N)C(=O)O; Orn = NCCC[C@H](N)C(=O)O; AEEA = NCCOCCOCC(=O)O; Aib = CC(C)(N)C(=O)O

To fix the notation:
T1: human glucose-dependent insulinotropic polypeptide (GIP) receptor (human), P48546
T1 chain: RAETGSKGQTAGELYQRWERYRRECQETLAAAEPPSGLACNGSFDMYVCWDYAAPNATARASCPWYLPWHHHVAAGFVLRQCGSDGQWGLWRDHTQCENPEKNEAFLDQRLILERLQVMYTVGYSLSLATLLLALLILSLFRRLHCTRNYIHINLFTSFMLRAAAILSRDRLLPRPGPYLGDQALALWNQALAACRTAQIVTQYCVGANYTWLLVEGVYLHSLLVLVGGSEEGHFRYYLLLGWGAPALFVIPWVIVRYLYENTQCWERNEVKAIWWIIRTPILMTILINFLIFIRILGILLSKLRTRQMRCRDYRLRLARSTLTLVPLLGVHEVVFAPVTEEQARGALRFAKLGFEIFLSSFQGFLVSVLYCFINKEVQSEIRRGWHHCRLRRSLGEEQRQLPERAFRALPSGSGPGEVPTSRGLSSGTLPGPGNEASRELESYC

B1: Example 116 (peptide)
peptide: Y[Aib]EGTFISDYSI[αMeL]LD[Orn]IRQ[Aib]DFVEYK([AEEA-AEEA-γGlu-C20 diacid])LEGGPSSGAPPPS-NH2
modifications: N-terminus assumed
SMILES: CC[C@H](C)[C@H](NC(=O)[C@H](CCCN)NC(=O)[C@H](CC(=O)O)NC(=O)[C@H](CC(C)C)NC(=O)[C@](C)(CC(C)C)NC(=O)[C@@H](NC(=O)[C@H](CO)NC(=O)[C@H](Cc1ccc(O)cc1)NC(=O)[C@H](CC(=O)O)NC(=O)[C@H](CO)NC(=O)[C@@H](NC(=O)[C@H](Cc1ccccc1)NC(=O)[C@@H](NC(=O)CNC(=O)[C@H](CCC(=O)O)NC(=O)C(C)(C)NC(=O)[C@@H](N)Cc1ccc(O)cc1)[C@@H](C)O)[C@@H](C)CC)[C@@H](C)CC)C(=O)N[C@@H](CCCNC(=N)N)C(=O)N[C@@H](CCC(N)=O)C(=O)NC(C)(C)C(=O)N[C@@H](CC(=O)O)C(=O)N[C@@H](Cc1ccccc1)C(=O)N[C@H](C(=O)N[C@@H](CCC(=O)O)C(=O)N[C@@H](Cc1ccc(O)cc1)C(=O)N[C@@H](CCCCNC(=O)COCCOCCNC(=O)COCCOCCNC(=O)CC[C@H](NC(=O)CCCCCCCCCCCCCCCCCCC(=O)O)C(=O)O)C(=O)N[C@@H](CC(C)C)C(=O)N[C@@H](CCC(=O)O)C(=O)NCC(=O)NCC(=O)N1CCC[C@H]1C(=O)N[C@@H](CO)C(=O)N[C@@H](CO)C(=O)NCC(=O)N[C@@H](C)C(=O)N1CCC[C@H]1C(=O)N1CCC[C@H]1C(=O)N1CCC[C@H]1C(=O)N[C@@H](CO)C(N)=O)C(C)C
B2: Example 113 (peptide)
peptide: Y[Aib]EGT[αMePhe(2-F)]ISDYSIALDKIHQ[Aib]DFVE[4Pal]K([AEEA-AEEA-γGlu-C20 diacid])LEAGPSSGAPPPS-NH2
modifications: N-terminus assumed
SMILES: CC[C@H](C)[C@H](NC(=O)[C@H](CO)NC(=O)[C@H](Cc1ccc(O)cc1)NC(=O)[C@H](CC(=O)O)NC(=O)[C@H](CO)NC(=O)[C@@H](NC(=O)[C@](C)(Cc1ccccc1F)NC(=O)[C@@H](NC(=O)CNC(=O)[C@H](CCC(=O)O)NC(=O)C(C)(C)NC(=O)[C@@H](N)Cc1ccc(O)cc1)[C@@H](C)O)[C@@H](C)CC)C(=O)N[C@@H](C)C(=O)N[C@@H](CC(C)C)C(=O)N[C@@H](CC(=O)O)C(=O)N[C@@H](CCCCN)C(=O)N[C@H](C(=O)N[C@@H](Cc1c[nH]cn1)C(=O)N[C@@H](CCC(N)=O)C(=O)NC(C)(C)C(=O)N[C@@H](CC(=O)O)C(=O)N[C@@H](Cc1ccccc1)C(=O)N[C@H](C(=O)N[C@@H](CCC(=O)O)C(=O)N[C@@H](Cc1ccncc1)C(=O)N[C@@H](CCCCNC(=O)COCCOCCNC(=O)COCCOCCNC(=O)CC[C@H](NC(=O)CCCCCCCCCCCCCCCCCCC(=O)O)C(=O)O)C(=O)N[C@@H](CC(C)C)C(=O)N[C@@H](CCC(=O)O)C(=O)N[C@@H](C)C(=O)NCC(=O)N1CCC[C@H]1C(=O)N[C@@H](CO)C(=O)N[C@@H](CO)C(=O)NCC(=O)N[C@@H](C)C(=O)N1CCC[C@H]1C(=O)N1CCC[C@H]1C(=O)N1CCC[C@H]1C(=O)N[C@@H](CO)C(N)=O)C(C)C)[C@@H](C)CC
B3: Example 112 (peptide)
peptide: Y[Aib]EGT[αMePhe(2-F)]ISDYSIALDKIHQ[Aib]DFVE[4Pal]K([AEEA-AEEA-γGlu-C20 diacid])LEGGPSSGAPPPS-NH2
modifications: N-terminus assumed
SMILES: CC[C@H](C)[C@H](NC(=O)[C@H](CO)NC(=O)[C@H](Cc1ccc(O)cc1)NC(=O)[C@H](CC(=O)O)NC(=O)[C@H](CO)NC(=O)[C@@H](NC(=O)[C@](C)(Cc1ccccc1F)NC(=O)[C@@H](NC(=O)CNC(=O)[C@H](CCC(=O)O)NC(=O)C(C)(C)NC(=O)[C@@H](N)Cc1ccc(O)cc1)[C@@H](C)O)[C@@H](C)CC)C(=O)N[C@@H](C)C(=O)N[C@@H](CC(C)C)C(=O)N[C@@H](CC(=O)O)C(=O)N[C@@H](CCCCN)C(=O)N[C@H](C(=O)N[C@@H](Cc1c[nH]cn1)C(=O)N[C@@H](CCC(N)=O)C(=O)NC(C)(C)C(=O)N[C@@H](CC(=O)O)C(=O)N[C@@H](Cc1ccccc1)C(=O)N[C@H](C(=O)N[C@@H](CCC(=O)O)C(=O)N[C@@H](Cc1ccncc1)C(=O)N[C@@H](CCCCNC(=O)COCCOCCNC(=O)COCCOCCNC(=O)CC[C@H](NC(=O)CCCCCCCCCCCCCCCCCCC(=O)O)C(=O)O)C(=O)N[C@@H](CC(C)C)C(=O)N[C@@H](CCC(=O)O)C(=O)NCC(=O)NCC(=O)N1CCC[C@H]1C(=O)N[C@@H](CO)C(=O)N[C@@H](CO)C(=O)NCC(=O)N[C@@H](C)C(=O)N1CCC[C@H]1C(=O)N1CCC[C@H]1C(=O)N1CCC[C@H]1C(=O)N[C@@H](CO)C(N)=O)C(C)C)[C@@H](C)CC
B4: Example 115 (peptide)
peptide: Y[Aib]EGTFISDYSI[αMeL]LDKIRQ[Aib]DFVEYK([AEEA-AEEA-γGlu-C20 diacid])LEGGPSSGAPPPS-NH2
modifications: N-terminus assumed
SMILES: CC[C@H](C)[C@H](NC(=O)[C@H](CCCCN)NC(=O)[C@H](CC(=O)O)NC(=O)[C@H](CC(C)C)NC(=O)[C@](C)(CC(C)C)NC(=O)[C@@H](NC(=O)[C@H](CO)NC(=O)[C@H](Cc1ccc(O)cc1)NC(=O)[C@H](CC(=O)O)NC(=O)[C@H](CO)NC(=O)[C@@H](NC(=O)[C@H](Cc1ccccc1)NC(=O)[C@@H](NC(=O)CNC(=O)[C@H](CCC(=O)O)NC(=O)C(C)(C)NC(=O)[C@@H](N)Cc1ccc(O)cc1)[C@@H](C)O)[C@@H](C)CC)[C@@H](C)CC)C(=O)N[C@@H](CCCNC(=N)N)C(=O)N[C@@H](CCC(N)=O)C(=O)NC(C)(C)C(=O)N[C@@H](CC(=O)O)C(=O)N[C@@H](Cc1ccccc1)C(=O)N[C@H](C(=O)N[C@@H](CCC(=O)O)C(=O)N[C@@H](Cc1ccc(O)cc1)C(=O)N[C@@H](CCCCNC(=O)COCCOCCNC(=O)COCCOCCNC(=O)CC[C@H](NC(=O)CCCCCCCCCCCCCCCCCCC(=O)O)C(=O)O)C(=O)N[C@@H](CC(C)C)C(=O)N[C@@H](CCC(=O)O)C(=O)NCC(=O)NCC(=O)N1CCC[C@H]1C(=O)N[C@@H](CO)C(=O)N[C@@H](CO)C(=O)NCC(=O)N[C@@H](C)C(=O)N1CCC[C@H]1C(=O)N1CCC[C@H]1C(=O)N1CCC[C@H]1C(=O)N[C@@H](CO)C(N)=O)C(C)C

The target of the first assay is T1, human glucose-dependent insulinotropic …. In words: SPA, displacement of [125I]-GIP from hGIPR membranes, 0.1% bacitracin. Background: Loss of bound radioactivity is the signal in a displacement assay; it reports binding, not function.
For orientation: Ki means the equilibrium dissociation constant of an inhibitor or competing ligand from its target. In the case of B1, the inhibition constant Ki worked out at 0.166 nM.

Molecule B2 displayed an inhibition constant (Ki) of 0.108 nM.

B3 registered an inhibitory constant (Ki) of 0.0742 nM.

Consider B4, for which the Ki worked out at 0.0997 nM.

In the next assay the target is human glucagon receptor (human), P47871. In words: SPA, displacement of [125I]-Gcg from hGcgR membranes, 0.1% bacitracin.
human glucagon receptor (human), P47871, sequence (P47871 26-477): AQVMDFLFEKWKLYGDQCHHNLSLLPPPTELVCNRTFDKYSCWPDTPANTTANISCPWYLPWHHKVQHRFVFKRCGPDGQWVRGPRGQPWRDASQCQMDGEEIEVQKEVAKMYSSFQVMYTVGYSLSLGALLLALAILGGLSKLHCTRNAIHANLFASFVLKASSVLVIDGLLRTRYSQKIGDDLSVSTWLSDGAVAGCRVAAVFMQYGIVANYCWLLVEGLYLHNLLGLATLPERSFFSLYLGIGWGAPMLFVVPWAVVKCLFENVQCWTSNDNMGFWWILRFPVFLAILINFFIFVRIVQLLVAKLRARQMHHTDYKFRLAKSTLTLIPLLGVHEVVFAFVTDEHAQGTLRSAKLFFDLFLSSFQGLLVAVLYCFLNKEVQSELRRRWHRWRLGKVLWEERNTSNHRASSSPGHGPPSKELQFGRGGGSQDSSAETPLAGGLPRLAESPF
As to B1, the Ki worked out at 178 nM.

The molecule B2 returned a Ki of 821 nM.

B3: the Ki worked out at 257 nM.

In the case of B4, the Ki was found to be 373 nM.
